Data on one molecule can be found in publication PMC4773404, “Activation of a synapse weakening pathway by human Val66 but not Met66 pro-brain-derived neurotrophic factor (proBDNF)” (Pharmacological Research, 2016).

In general, Kd refers to the concentration at which binding is half-saturated. A low value points to tighter binding. A word on the koff: it is a measure of how fast the partners let go of each other. A higher koff goes with fast dissociation. As usually defined, the kon is the rate constant with which the complex forms. A high value points to faster complex formation.

Assay in all cases: SPR; Biacore T200; receptor domains amine-coupled to CM5-S Series chips; analytes 0-20 nM flowed over; 10 mM HEPES, 150 mM NaCl, 3 mM EDTA, 0.05% surfactant P20, pH 7.4; double-referenced; 1:1 Langmuir fit
Holding throughout (details): both partners purified

In experiment [1] the target is T1, human proBDNF Met66, furin cleavage-resistant (FCR) (human).
T1 construct: furin site 127RR128 changed to AA; non-glycosylated; Cloned in pET 24a(+); also called proBDNF FCR Met66
T1 sequence (P23560 whole entry, looked up): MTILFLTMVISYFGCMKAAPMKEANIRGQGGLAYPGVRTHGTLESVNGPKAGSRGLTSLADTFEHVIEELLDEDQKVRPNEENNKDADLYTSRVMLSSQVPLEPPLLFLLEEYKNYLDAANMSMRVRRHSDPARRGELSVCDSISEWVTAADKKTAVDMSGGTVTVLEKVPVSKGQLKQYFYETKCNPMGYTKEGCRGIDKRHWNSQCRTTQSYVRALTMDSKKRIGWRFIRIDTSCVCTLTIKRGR

The target in experiment [2] is T2, brain-derived neurotrophic factor (BDNF).
T2 construct: mature BDNF (~14 kDa), the cut product of proBDNF; used as control analyte in SPR; also called mature BDNF
T2 sequence (P23560 19-247, species assumed, looked up): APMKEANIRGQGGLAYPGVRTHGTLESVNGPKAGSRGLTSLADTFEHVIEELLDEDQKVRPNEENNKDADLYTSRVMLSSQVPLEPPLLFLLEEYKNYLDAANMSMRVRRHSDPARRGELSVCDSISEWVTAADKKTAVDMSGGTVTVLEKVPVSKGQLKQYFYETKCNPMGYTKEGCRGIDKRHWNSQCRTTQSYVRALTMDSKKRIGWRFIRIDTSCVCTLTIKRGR

Experiment [3] deals with T3, human proBDNF Val66, furin cleavage-resistant (FCR) (human).
T3 construct: furin site 127RR128 changed to AA; non-glycosylated; Cloned in pET 24a(+); also called proBDNF FCR Val66
T3 sequence (P23560 whole entry, looked up): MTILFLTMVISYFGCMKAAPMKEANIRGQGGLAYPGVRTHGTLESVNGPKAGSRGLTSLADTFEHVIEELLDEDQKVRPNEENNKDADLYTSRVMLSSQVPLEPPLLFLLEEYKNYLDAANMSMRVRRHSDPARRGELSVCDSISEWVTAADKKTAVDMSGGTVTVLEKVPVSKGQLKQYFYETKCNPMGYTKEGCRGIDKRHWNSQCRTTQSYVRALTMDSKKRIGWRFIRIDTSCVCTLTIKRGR

B1: TrkB immunoglobulin-like domain 2 (TrkBIg2) (domain or fragment)
chain: APTITFLESPTSDHHWCIPFTVKGNPKPALQWFYNGAILNESKYICTKIHVTNHTEYHGCLQLDNPTHMNNGDYTLIAKNEYGKDEKQISAHFMGWPG
As for B1, the Kd in experiment [1] was 2.03 nM; in experiment [2], 0.58 nM; in experiment [3] it was 2.32 nM. For the same molecule, the koff in experiment [1] is 0.00392 s⁻¹; in experiment [2], 0.00232 s⁻¹; in experiment [3], 0.00367 s⁻¹. The on-rate (kon) in experiment [1] worked out at 1.99e+06 M⁻¹ s⁻¹; in experiment [2], 4.57e+06 M⁻¹ s⁻¹; in experiment [3], 1.61e+06 M⁻¹ s⁻¹.
